According to paper PMC6625990, “Structural underpinnings of Ric8A function as a G-protein α-subunit chaperone and guanine-nucleotide exchange factor” (Nature Communications, 2019):
Like-named read-outs stand apart in the source and are kept apart here. No end group written: not given here.

Columns and labels:
Ric8A1–492 [1] = molecular target: T1, Ric8A1–492 (Bos taurus, UniProt Q5E9J8); experiment: DSF: thermal stabilization of Ric8A1–492 by Gαt C-terminal peptides; format: binding, bovine
T1 construct: His6 (N); made in house; host or cells: E. coli BL21(DE3)
T1 sequence (Q5E9J8 1-492): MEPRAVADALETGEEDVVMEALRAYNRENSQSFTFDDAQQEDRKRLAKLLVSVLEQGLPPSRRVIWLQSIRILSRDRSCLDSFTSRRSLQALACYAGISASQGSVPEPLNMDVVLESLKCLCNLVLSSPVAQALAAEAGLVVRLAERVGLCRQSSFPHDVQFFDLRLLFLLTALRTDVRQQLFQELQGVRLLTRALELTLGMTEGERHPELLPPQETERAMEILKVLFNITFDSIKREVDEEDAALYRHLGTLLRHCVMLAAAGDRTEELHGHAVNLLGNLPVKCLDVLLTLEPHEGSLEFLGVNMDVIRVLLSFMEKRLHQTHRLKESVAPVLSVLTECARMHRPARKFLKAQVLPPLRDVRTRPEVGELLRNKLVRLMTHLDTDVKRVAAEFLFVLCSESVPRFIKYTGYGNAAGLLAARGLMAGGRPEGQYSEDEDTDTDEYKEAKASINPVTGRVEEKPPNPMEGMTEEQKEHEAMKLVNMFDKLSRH
Experimental: Fig. 1 Interaction of Ric8A with the C-terminus of Gα. a Thermal denaturation, as determined by differential scanning fluorimetry (DSF), of 8.7 µM Ric8A1–492 in the absence (black) or presence of 50 µM Gαt340–350 (blue) or Gαt333–350 (red). RFU – relative fluorescence units. Average normalized curves are shown. The Tm values (°C) are shown as mean ± SD (n = 3). b Kinetics of association and dissociation for Ric8A1–492 and biotinylated Gαt333–350 coupled to a streptavidin biosensor as determined using BLI. Representative curves are shown.
Stabilities of Ric8A constructs with and without peptide ligands were assessed using differential scanning fluorimetry (DSF), in which an increase in fluorescence of the Sypro Orange dye is measured. Ric8A1–492, Ric8A1–452 and Ric8A1–426 in 20 mM Tris-HCl (pH 7.5) buffer containing 150 mM KCl, 5% glycerol, and 1 mM TCEP with and without peptide were used at a final concentration of 0.5 mg/ml and were supplemented with a 1000-fold dilution of Sypro Orange dye (Invitrogen). Temperature was increased at 1 °C/minute and fluorescence signals were recorded using real-time PCR (C1000 Touch thermal cycler, Bio Rad), with the cycler set to FRET mode and the excitation wavelength set at 450–490 nm and the emission wavelength at 560–580 nm.

Ric8A1–492 [2] = molecular target: T1, Ric8A1–492; experiment: BLI: biotinylated Gα C-terminal peptides (Gαt333–350, Gαs363–380, C1, C2) on streptavidin biosensor binding Ric8A1–492; set-up: species or system bovine; details: Octet RED96, N-terminally biotinylated peptide on streptavidin biosensor, 20 mM Tris, 150 mM KCl, 5% glycerol, 1 mM TCEP, 0.5 mg/ml BSA, pH 8.0, 26 °C, 1:1 binding model, mean ± SD, read-out: association constant (ka)
Experimental: An Octet RED96 system and streptavidin (SA)-coated biosensors (FortéBio, Menlo Park, CA) were used to measure association and dissociation kinetics for Gα peptides or the full-length Avi-tagged Gαt in relation to Ric8A1–492, Ric8A1–452, and Ric8A1–426. To obtain the Avi-tagged Gαt, Gαt was cloned into modified pET21a vector with the N-terminal His6-tag followed by the Avi tag and TEV cleavage site[59]. The Avi-tagged I340Q/N343H mutant of Gαt was prepared by QuikChange protocol. BL21(DE3) cells for expression of the Avi-tagged Gαt were grown in 2TY media supplemented with biotin (10 mg/liter), induced at OD600 of 0.6 with 50 µM IPTG and further grown overnight at 16 °C. Binding studies were performed in 20 mM Tris, 150 mM KCl, 5% glycerol, 1 mM TCEP, 0.5 mg/ml BSA, pH 8.0. […] For each concentration of Ric8A1–492, dissociation rate constant (kd) values were calculated from the corresponding dissociation phases of the curves. These kd values were used to calculate the association rate constant (ka) values from the association phases for each concentration according to the equation1 ka=kobserved-kd∕Ric8A1-492 The average ka and kd were calculated as means of the individual ka and kd values for all curves. Equilibrium dissociation constant KD was calculated as mean kd/mean ka. […]

Ric8A1–492 [3] = molecular target: T1, Ric8A1–492; experiment: SEC complex formation of Gαt C-terminal fusion proteins with Ric8A1–492; format: binding, bovine; details: size-exclusion chromatography elution profiles
From the text: The C-terminal 18-mer peptide of Gαi corresponding to Gαt333–350, was previously shown to bind to Ric8A[26]. To identify C-terminal constructs of Gα that are suitable for crystallization with Ric8A, we tested one in which the 11 C-terminal residues of Gαt were fused to the B1 domain of Streptococcal protein G (GB1-Gαt340–350) and a second in which the 24 C-terminal residues of Gαt were fused to MBP (MBP-Gαt327–350). For Ric8A, we used a construct that is truncated at the C-terminus (Ric8A1–492) and that had been reported to retain the full functionality of Ric8A[26].
MBP-Gαt327–350 was purified by Ni-NTA chromatography followed by SEC using a HiLoad 16/600 Superdex 200 pg column equilibrated with 20 mM Tris-HCl (pH 7.5) buffer containing 100 mM NaCl, 1 mM EDTA, and 2 mM TCEP. Ric8A1–492/MBP-Gαt327–350 complexes were prepared by mixing the proteins at a 1:1.5 molar ratio in 5 mM maltose and loading the mixture onto a HiLoad 16/600 Superdex 200 pg column equilibrated with 20 mM Tris-HCl (pH 7.5) buffer containing 150 mM KCl, 5% glycerol, and 1 mM TCEP.
75 KDa Peak 1 Peak 2 75 KDa Peak 1 Peak 2
Supplementary Figure 1. Ric8A1-492 forms complexes with GB1-tagged Gαt340-350 andMBP-taggedGαt333-350. […] (B) Peak fractions in A analyzed by SDS-PAGE. […] (D) Peak fractions in C analyzed by SDS-PAGE. […]

Ric8A = details: read-out: KD previously estimated; cited from earlier work
Ric8A1–452 = experiment: DSF: thermal stabilization of Ric8A1–452 by Gαt333–350; format: binding, bovine; details: 9.1 µM Ric8A1–452, 50 µM peptide, mean ± SD
Experimental: Stabilities of Ric8A constructs with and without peptide ligands were assessed using differential scanning fluorimetry (DSF), in which an increase in fluorescence of the Sypro Orange dye is measured. […] Temperature was increased at 1 °C/minute and fluorescence signals were recorded using real-time PCR (C1000 Touch thermal cycler, Bio Rad), with the cycler set to FRET mode and the excitation wavelength set at 450–490 nm and the emission wavelength at 560–580 nm.

Ric8A1–492 [4] = molecular target: T1, Ric8A1–492; experiment: BLI: Avi-tagged I340Q/N343H mutant of Gαt binding Ric8A1–492; set-up: species or system bovine
Experimental: An Octet RED96 system and streptavidin (SA)-coated biosensors (FortéBio, Menlo Park, CA) were used to measure association and dissociation kinetics for Gα peptides or the full-length Avi-tagged Gαt in relation to Ric8A1–492, Ric8A1–452, and Ric8A1–426. To obtain the Avi-tagged Gαt, Gαt was cloned into modified pET21a vector with the N-terminal His6-tag followed by the Avi tag and TEV cleavage site[59]. The Avi-tagged I340Q/N343H mutant of Gαt was prepared by QuikChange protocol. BL21(DE3) cells for expression of the Avi-tagged Gαt were grown in 2TY media supplemented with biotin (10 mg/liter), induced at OD600 of 0.6 with 50 µM IPTG and further grown overnight at 16 °C. Binding studies were performed in 20 mM Tris, 150 mM KCl, 5% glycerol, 1 mM TCEP, 0.5 mg/ml BSA, pH 8.0. All steps were performed at 26 °C, with biosensors stirred into 0.2 ml of sample in each well at 1000 rpm, and at a data acquisition rate of 5.0 Hz. N-terminally biotinylated Gαt333–350, Gαs363–380, C1 peptide and C2 peptide were loaded onto SA sensors at a concentration of 0.05, 0.05, 0.005, and 0.01 mg/ml for 40–90 seconds. Data for association and dissociation phases of the assay were collected as shown in Fig. 1b and Supplementary Figs. 8, 11, 12, and 14. To correct for baseline drift and non-specific binding, reference sensors lacking bound Gα peptide were used in the BLI assays with Ric8A proteins at the highest concentrations. Kinetic data fitting was performed using FortéBio Data Analysis software 10.0. For each concentration of Ric8A1–492, dissociation rate constant (kd) values were calculated from the corresponding dissociation phases of the curves. These kd values were used to calculate the association rate constant (ka) values from the association phases for each concentration according to the equation1 ka=kobserved-kd∕Ric8A1-492 The average ka and kd were calculated as means of the individual ka and kd values for all curves. Equilibrium dissociation constant KD was calculated as mean kd/mean ka. Steady-state data fitting was performed using the GraphPad Prism 7 software with the equation for one site specific binding.
Supplementary Figure 13. (A) Kinetics of association and dissociation of Ric8A1-492 and the Avi-tagged I340Q/N343H mutant of Gαt coupled to a streptavidin biosensor as determined using BLI. Representative experiment is shown. (B) The steady-state binding curve. For experiments performed in […]
(1 picture or pasted object on this page, not shown here)

DAVTDIIIKENLKDCGLF [Gαt333–350]
stabilization effect (Tm shift) on Ric8A1–492 (Ric8A1–492 [1]): ~ 9 °C | kon (Ric8A1–492 [2]): 130000 ± 3e+09 M⁻¹ s⁻¹

GB1-Gαt340–350: 11 C-terminal residues of Gαt fused to the B1 domain of Streptococcal protein G (IKENLKDCGLF; also: fused to GB1 (B1 domain of protein G), end not given here)
complex formation with Ric8A1–492 (in words) (Ric8A1–492 [3]): formed complexes with Ric8A1–492 at nearly 1:1 stoichiometry

Gα C-terminus: C-terminal 18-mer peptide of Gαi previously shown to bind to Ric8A (ref 26) (DAVTDVIIKNNLKDCGLF; UniProt P63096 337-354, looked up, fragment)
Kd (Ric8A): 12000 nM

Gαt340–350: 11-mer C-terminal peptide of Gαt (IKENLKDCGLF)
Tm of Ric8A1–492 in the presence of peptide (Ric8A1–492 [1]; 8.7 µM Ric8A1–492, 50 µM peptide, mean ± SD (n = 3)): 48.0 ± 0.3 °C | mean Tm of Ric8A1-492 + peptide (Ric8A1–492 [1]; source data, mean of 3 replicates): 48 C | Tm (C ) of Ric8A1-492 + peptide (Ric8A1–492 [1]; source data, replicate 1): 48.1 C | Tm (C ) of Ric8A1-492 + peptide (Ric8A1–492 [1]; source data, replicate 2): 47.69 C | Tm (C ) of Ric8A1-492 + peptide (Ric8A1–492 [1]; source data, replicate 3): 48.35 C | Tm of Ric8A1–452 in the presence of peptide (Ric8A1–452): 55.75 °C

I340Q/N343H: Avi-tagged double I340Q/N343H mutant of full-length Gαt
Kd (Ric8A1–492 [4]; BLI steady state, Avi-tagged mutant on streptavidin biosensor, mean ± SD, n = 3 (triplicate), read-out: KD for Ric8A1–492): 2.3 ± 0.4 µM | Kd (Ric8A1–492 [4]; BLI, representative experiment (Suppl. Fig. 13B), read-out: KD, steady-state binding curve): 2.6 µM | Kd (Ric8A1–492 [4]; Suppl Fig 13B BLI steady state, replicate 1, read-out: KD uM (stady state)): 1.95 µM | Kd (Ric8A1–492 [4]; Suppl Fig 13B BLI steady state, replicate 2, read-out: KD uM (stady state)): 2.3 µM | Kd (Ric8A1–492 [4]; Suppl Fig 13B BLI steady state, replicate 3, read-out: KD uM (stady state)): 2.66 µM | decrease of affinity for Ric8A1–492 (Ric8A1–492 [4]; relative to Gαt): about 100 fold

MBP-Gαt327–350: 24 C-terminal residues of Gαt fused to MBP (NVKFVFDAVTDIIIKENLKDCGLF; not fully specified (N-terminus); also: N-terminal fusion to modified MBP via AAAH linker, His6 tag)
complex formation with Ric8A1–492 (in words) (Ric8A1–492 [3]): formed complexes with Ric8A1–492 at nearly 1:1 stoichiometry
